Test results as given in IntAct's records for PubMed 34075876.

B1: Protein TOPLESS (Arabidopsis thaliana (Mouse-ear cress)), Q94AI7 (parent)
chain: MSSLSRELVFLILQFLDEEKFKETVHKLEQESGFFFNMKYFEDEVHNGNWDEVEKYLSGFTKVDDNRYSMKIFFEIRKQKYLEALDKHDRPKAVDILVKDLKVFSTFNEELFKEITQLLTLENFRENEQLSKYGDTKSARAIMLVELKKLIEANPLFRDKLQFPTLRNSRLRTLINQSLNWQHQLCKNPRPNPDIKTLFVDHSCGPPNGARAPSPVNNPLLGGIPKAGGFPPLGAHGPFQPTASPVPTPLAGWMSSPSSVPHPAVSAGAIALGGPSIPAALKHPRTPPTNASLDYPSADSEHVSKRTRPMGISDEVNLGVNMLPMSFSGQAHGHSPAFKAPDDLPKTVARTLSQGSSPMSMDFHPIKQTLLLVGTNVGDIGLWEVGSRERLVQKTFKVWDLSKCSMPLQAALVKEPVVSVNRVIWSPDGSLFGVAYSRHIVQLYSYHGGEDMRQHLEIDAHVGGVNDISFSTPNKQLCVITCGDDKTIKVWDAATGVKRHTFEGHEAPVYSVCPHYKENIQFIFSTALDGKIKAWLYDNMGSRVDYDAPGRWCTTMAYSADGTRLFSCGTSKDGESFIVEWNESEGAVKRTYQGFHKRSLGVVQFDTTKNRYLAAGDDFSIKFWDMDAVQLLTAIDGDGGLQASPRIRFNKEGSLLAVSGNENVIKIMANSDGLRLLHTFENISSESSKPAINSIAAAAAAAATSAGHADRSANVVSIQGMNGDSRNMVDVKPVITEESNDKSKIWKLTEVSEPSQCRSLRLPENLRVAKISRLIFTNSGNAILALASNAIHLLWKWQRNERNATGKATASLPPQQWQPASGILMTNDVAETNPEEAVPCFALSKNDSYVMSASGGKISLFNMMTFKTMATFMPPPPAATFLAFHPQDNNIIAIGMDDSTIQIYNVRVDEVKSKLKGHSKRITGLAFSNVLNVLVSSGADAQLCVWNTDGWEKQRSKVLPLPQGRPNSAPSDTRVQFHQDQAHFLVVHETQLAIYETTKLECMKQWAVRESLAPITHATFSCDSQLVYASFMDATVCVFSSANLRLRCRVNPSAYLPASLSNSNVHPLVIAAHPQEPNMFAVGLSDGGVHIFEPLESEGKWGVAPPAENGSASGAPTAPSVGASASDQPQR
partner: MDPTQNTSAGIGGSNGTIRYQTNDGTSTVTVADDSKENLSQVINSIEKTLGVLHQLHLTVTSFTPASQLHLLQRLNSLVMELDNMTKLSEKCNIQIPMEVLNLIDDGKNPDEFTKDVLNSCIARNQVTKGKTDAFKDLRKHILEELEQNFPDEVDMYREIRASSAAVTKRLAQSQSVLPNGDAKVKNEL
B2: Protein TOPLESS (Arabidopsis thaliana (Mouse-ear cress)), Q94AI7 (parent)
chain: B1 chain
partner: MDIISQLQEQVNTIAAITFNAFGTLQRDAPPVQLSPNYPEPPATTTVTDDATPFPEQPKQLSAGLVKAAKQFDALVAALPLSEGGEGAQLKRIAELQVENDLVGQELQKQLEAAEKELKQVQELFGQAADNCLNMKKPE

Variants of: B1
Details: with md10b_arath MED10B

| effect of a mutation on the interaction | Variant |
| --- | --- |
| decreasing interaction strength | V145A;E146A;K148A;K149A |

Variants of: B2
Details: with med21_arath MED21, C0LU16

| effect of a mutation on the interaction | Variant |
| --- | --- |
| decreasing interaction strength | K148A |
| decreasing interaction strength | K149A |
| decreasing interaction strength | V145A |
| decreasing interaction strength | E146A |

Variants of: B2
Details: with med21_arath MED21, C0LU16
Remark: another data set of the same source

| effect of a mutation on the interaction | Variant |
| --- | --- |
| disrupting interaction strength | V145A;E146A;K148A;K149A |
